The target of one data set is CREB (TNT-CREB) (UniProt P16220 1-327). The experiment in a line: EMSA; specific; 40 mM Hepes pH 7.9, 75 mM KCl, 0.2 mM EDTA, 0.5 mM DTT, 150 ng/ul poly(dI-dC), 5% Ficoll, room temperature, 30 min; 7 ug TNT protein; competitor 100-fold or 50-fold (Methods). The following applies: protein: ivt; chain copies: 2; label: 32P; blunt. Background: In EMSA bound probe runs differently from free probe, usually more slowly.

In the next data set the target is Smad3 (TNT-Smad3) (UniProt P84022 1-425). The description is as above. The conditions noted are these: protein: ivt; label: 32P; blunt.
Sequence of Smad3 (TNT-Smad3) (P84022 whole entry): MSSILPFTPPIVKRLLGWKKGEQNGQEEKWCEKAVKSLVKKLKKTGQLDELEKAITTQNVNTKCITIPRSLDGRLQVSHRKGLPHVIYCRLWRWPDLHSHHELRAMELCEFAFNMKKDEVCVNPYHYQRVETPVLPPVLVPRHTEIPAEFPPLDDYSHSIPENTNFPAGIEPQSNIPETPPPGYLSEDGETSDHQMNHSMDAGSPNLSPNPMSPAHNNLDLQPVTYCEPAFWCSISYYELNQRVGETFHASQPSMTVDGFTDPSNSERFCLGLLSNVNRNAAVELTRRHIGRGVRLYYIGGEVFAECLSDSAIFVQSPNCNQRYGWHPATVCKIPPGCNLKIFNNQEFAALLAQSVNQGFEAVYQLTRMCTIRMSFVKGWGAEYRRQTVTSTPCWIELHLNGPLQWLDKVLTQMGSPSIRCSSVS

Sequence of CREB (TNT-CREB) (P16220 whole entry): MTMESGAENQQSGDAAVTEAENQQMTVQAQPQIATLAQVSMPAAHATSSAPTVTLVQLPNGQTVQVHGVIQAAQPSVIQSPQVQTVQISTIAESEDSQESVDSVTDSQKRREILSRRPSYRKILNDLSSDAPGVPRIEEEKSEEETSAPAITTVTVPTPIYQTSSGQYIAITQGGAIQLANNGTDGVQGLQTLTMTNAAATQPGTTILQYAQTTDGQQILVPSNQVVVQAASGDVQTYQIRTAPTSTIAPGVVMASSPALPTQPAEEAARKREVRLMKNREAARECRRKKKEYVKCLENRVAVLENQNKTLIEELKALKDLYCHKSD

B1: Sox9 promoter CRE (dsDNA)
DNA 1: CCTCGAGTCTCGTCACCCA
DNA 2: TGGGTGACGAGACTCGAGG
For the molecule B1, in the data set with CREB (TNT-CREB), the binding result was “binds”.

B2: Sox9 promoter Smad site (dsDNA)
DNA 1: CTCGGAACTGTCTGGAAACTTCAG
DNA 2: CTGAAGTTTCCAGACAGTTCCGAG
As to B2, the binding result in the data set with Smad3 (TNT-Smad3) was “binds”.

Source of the values: paper PMC8828901, “Sox9 is involved in the thyroid differentiation program and is regulated by crosstalk between TSH, TGFβ and thyroid transcription factors”.
